Columns and labels:
[1] = target: UbcH5b (E2 ubiquitin-conjugating enzyme), P62837
[2] = target: GST-tagged PKN1, Q16512
GST-tagged PKN1, Q16512, sequence (Q16512 whole entry, looked up): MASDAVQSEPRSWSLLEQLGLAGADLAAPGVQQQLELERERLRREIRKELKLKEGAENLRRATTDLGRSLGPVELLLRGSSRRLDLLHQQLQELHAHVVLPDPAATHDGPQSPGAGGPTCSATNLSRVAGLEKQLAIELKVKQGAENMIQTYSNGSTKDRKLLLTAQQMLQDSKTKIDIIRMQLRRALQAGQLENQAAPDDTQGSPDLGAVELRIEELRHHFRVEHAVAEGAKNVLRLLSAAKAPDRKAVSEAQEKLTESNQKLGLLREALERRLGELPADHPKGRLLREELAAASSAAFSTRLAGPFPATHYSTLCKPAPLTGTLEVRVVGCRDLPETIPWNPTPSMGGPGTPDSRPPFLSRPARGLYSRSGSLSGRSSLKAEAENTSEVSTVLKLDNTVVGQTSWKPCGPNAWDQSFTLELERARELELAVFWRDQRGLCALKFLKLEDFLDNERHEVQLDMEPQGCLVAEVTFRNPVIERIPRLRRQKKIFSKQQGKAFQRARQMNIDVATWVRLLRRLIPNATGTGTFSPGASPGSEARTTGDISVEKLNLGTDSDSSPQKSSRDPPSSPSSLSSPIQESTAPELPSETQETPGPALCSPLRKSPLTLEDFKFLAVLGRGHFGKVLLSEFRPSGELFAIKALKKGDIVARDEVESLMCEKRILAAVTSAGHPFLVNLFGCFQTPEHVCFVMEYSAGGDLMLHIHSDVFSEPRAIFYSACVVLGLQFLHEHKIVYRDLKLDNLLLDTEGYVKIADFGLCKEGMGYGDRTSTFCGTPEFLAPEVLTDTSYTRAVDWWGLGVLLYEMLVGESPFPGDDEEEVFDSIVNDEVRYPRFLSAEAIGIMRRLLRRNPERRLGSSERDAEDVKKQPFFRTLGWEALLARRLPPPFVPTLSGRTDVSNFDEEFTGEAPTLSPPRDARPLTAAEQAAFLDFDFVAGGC

UbcH5b (E2 ubiquitin-conjugating enzyme), P62837, sequence (P62837 whole entry, looked up): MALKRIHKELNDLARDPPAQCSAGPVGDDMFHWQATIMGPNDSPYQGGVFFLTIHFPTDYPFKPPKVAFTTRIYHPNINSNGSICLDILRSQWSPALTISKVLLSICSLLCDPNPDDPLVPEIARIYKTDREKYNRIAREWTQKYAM

| Protein | in vitro ubiquitination assay, anti-HA western blot [1] | other results |
| --- | --- | --- |
| recombinant IpaH9.8 from Shigella flexneri (protein) MLPINNNFSLPQNSFYNTISGTYADYFSAWDKWEKQALPGEERDEAVSRLKECLINNSDELRLDRLNLSSLPDNLPAQITLLNVSYNQLTNLPELPVTLKKLYSASNKLSELPVLPPALESLQVQHNELENLPALPDSLLTMNISYNEIVSLPSLPQALKNLRATRNFLTELPAFSEGNNPVVREYFFDRNQISHIPESILNLRNECSIHISDNPLSSHALQALQRLTSSPDYHGPRIYFSMSDGQQNTLHRPLADAVTAWFPENKQSDVSQIWHAFEHEEHANTFSAFLDRLSDTVSARNTSGFREQVAAWLEKLSASAELRQQSFAVAADATESCEDRVALTWNNLRKTLLVHQASEGLFDNDTGALLSLGREMFRLEILEDIARDKVRTLHFVDEIEVYLAFQTMLAEKLQLSTAVKEMRFYGVSGVTANDLRTAEAMVRSREENEFTDWFSLWGPWHAVLKRTEADRWAQAEEQKYEMLENEYPQRVADRLKASGLSGDADAEREAGAQVMRETEQQIYRQLTDEVLALRLFENGSQLHHSHHHHHH | have the ability to remove ubiquitin from ubiquitinated UbcH5b in order to form poly-ubiquitin chains of the HA-tagged ubiquitin | – |
| recombinant SlrP from Salmonella enterica serovar Typhimurium (protein) MFNITNIQSTARHQSISNEASTEVPLKEEIWNKISAFFSSEHQVEAQNCIAYLCHPPETASPEEIKSKFECLRMLAFPAYADNIQYSRGGADQYCILSENSQEILSIVFNTEGYTVEGGGKSVTYTRVTESEQASSASGSKDAVNYELIWSEWVKEAPAKEAANREEAVQRMRDCLKNNKTELRLKILGLTTIPAYIPEQITTLILDNNELKSLPENLQGNIKTLYANSNQLTSIPATLPDTIQEMELSINRITELPERLPSALQSLDLFHNKISCLPENLPEELRYLSVYDNSIRTLPAHLPSEITHLNVQSNSLTALPETLPPGLKTLEAGENALTSLPASLPPELQVLDVSKNQITVLPETLPPTITTLDVSRNALTNLPENLPAALQIMQASRNNLVRLPESLPHFRGEGPQPTRIIVEYNPFSERTIQNMQRLMSSVDYQGPRVLFAMGDFSIVRVTRPLHQAVQGWLTSLEEEDVNQWRAFEAEANAAAFSGFLDYLGDTQNTRHPDFKEQVSAWLMRLAEDSALRETVFIIAMNATISCEDRVTLAYHQMQEATLVHDAERGAFDSHLAELIMAGREIFRLEQIESLAREKVKRLFFIDEVEVFLGFQNQLRESLSLTTMTRDMRFYNVSGITESDLDEAEIRIKMAENRDFHKWFALWGPWHKVLERIAPEEWREMMAKRDECIETDEYQSRVNAELEDLRIADDSDAERTTEVQMDAERAIGIKIMEEINQTLFTEIMENILLKKEVSSLMSAYWRHHHHHH | have the ability to remove ubiquitin from ubiquitinated UbcH5b in order to form poly-ubiquitin chains of the HA-tagged ubiquitin | – |
| recombinant SspH1 of Salmonella enterica serovar Typhimurium with C-terminal 6x His-tag (protein) MFNIRNTQPSVSMQAIAGAAAPEASPEEIVWEKIQVFFPQENYEEAQQCLAELCHPARGMLPDHISSQFARLKALTFPAWEENIQCNRDGINQFCILDAGSKEILSITLDDAGNYTVNCQGYSEAHDFIMDTEPGEECTEFAEGASGTSLRPATTVSQKAAEYDAVWSKWERDAPAGESPGRAAVVQEMRDCLNNGNPVLNVGASGLTTLPDRLPPHITTLVIPDNNLTSLPELPEGLRELEVSGNLQLTSLPSLPQGLQKLWAYNNWLASLPTLPPGLGDLAVSNNQLTSLPEMPPALRELRVSGNNLTSLPALPSGLQKLWAYNNRLTSLPEMSPGLQELDVSHNQLTRLPQSLTGLSSAARVYLDGNPLSVRTLQALRDIIGHSGIRIHFDMAGPSVPREARALHLAVADWLTSAREGEAAQADRWQAFGLEDNAAAFSLVLDRLRETENFKKDAGFKAQISSWLTQLAEDAALRAKTFAMATEATSTCEDRVTHALHQMNNVQLVHNAEKGEYDNNLQGLVSTGREMFRLATLEQIAREKAGTLALVDDVEVYLAFQNKLKESLELTSVTSEMRFFDVSGVTVSDLQAAELQVKTAENSGFSKWILQWGPLHSVLERKVPERFNALREKQISDYEDTYRKLYDEVLKSSGLVDDTDAERTIGVSAMDSAKKEFLDGLRALVDEVLGSYLTARWRLNHHHHHH | – | in vitro ubiquitination assay, anti-PKN1 immunoblot [2]: When the reaction was performed in the presence of SspH1 and PKN1 in vitro, anti-PKN1 antibodies detected an additional species migrating at a size >148 kDa; in vitro ubiquitination assay, immunoblots with anti-HA, anti-PKN1 and anti-His antibodies [2]: recombinant SspH1 ubiquitinates PKN1 in vitro; in vitro ubiquitination assay, western blot [1]: recombinant SspH1 has the ability to remove ubiquitin from ubiquitinated UbcH5B, to autoubiquitinate, and to polyubiquitinate Ha-tagged ubiquitin |
| recombinant IpaH1.4 from Shigella flexneri (protein) MIKSTNIQAIGSGIMHQINNVYSLTPLSLPMELTPSCNEFYLKTWSEWEKNGTPGEQRNIAFNRLKICLQNQEAELNLSELDLKTLPDLPPQITTLEIRKNLLTHLPDLPPMLKVIHAQFNQLESLPALPETLEELNAGDNKIKELPFLPENLTHLRVHNNRLHILPLLPPELKLLVVSGNRLDSIPPFPDKLEGLALANNFIEQLPELPFSMNRAVLMNNNLTTLPESVLRLAQNAFVNVAGNPLSGHTMRTLQQITTGPDYSGPRIFFSMGNSATISAPEHSLADAVTAWFPENKQSDVSQIWHAFEHEEHANTFSAFLDRLSDTVSARNTSGFREQVAAWLEKLSASAELRQQSFAVAADATESCEDRVALTWNNLRKTLLVHQASEGLFDNDTGALLSLGREMFRLEILEDIARDKVRTLHFVDEIEVYLAFQTMLAEKLQLSTAVKEMRFYGVSGVTANDLRTAEAMVRSREENEFTDWFSLWGPWHAVLKRTEADRWAQAEEQKYEMLENEYSQRVADRLKASGLSGDADAEREAGAQVMRETEQQIYRQLTDEVLALRLSENGSNHIAHHHHHH | have the ability to remove ubiquitin from ubiquitinated UbcH5b in order to form poly-ubiquitin chains of the HA-tagged ubiquitin | – |
| recombinant IpaH2.5 from Shigella flexneri (protein) MIKSTNIQVIGSGIMHQINNIHSLTLFSLPVSLSPSCNEYYLKVWSEWEKNGTPGEQRNIAFNRLKICLQNQEAELNLSELDLKTLPDLPPQITTLEIRKNLLTHLPDLPPMLKVIHAQFNQLESLPALPETLEELNAGDNKIKELPFLPENLTHLRVHNNRLHILPLLPPELKLLVVSGNRLDSIPPFPDKLEGLALANNFIEQLPELPFSMNRAVLMNNNLTTLPESVLRLAQNAFVNVAGNPLSGHTMRTLQQITTGPDYSGPRIFFSMGNSATISAPEHSLADAVTAWFPENKQSDVSQIWHAFEHEEHANTFSAFLDRLSDTVSARNTSGFREQVAAWLEKLSASAELRQQSFAVAADATESCEDRVALTWNNLRKTLLVHQASEGLFDNDTGALLSLGREMFRLEILEDIARDKVRTLHFVDEIEVYLAFQTMLAEKLQLSTAVKEMRFYGVSGVTANDLRTAEAMVRSREENEFTDWFSLWGPWHAVLKRTEADRWAQAEEQKYEMLENEYSQRVADRLKASGLSGDADAEREAGAQVMRETEQQIYRQLTDEVLAHHHHHH | have the ability to remove ubiquitin from ubiquitinated UbcH5b in order to form poly-ubiquitin chains of the HA-tagged ubiquitin | – |
| recombinant IpaH4.5 from Shigella flexneri (protein) MKPINNHSFFRSLCGLSCISRLSVEEQCTRDYHRIWDDWAREGTTTENRIQAVRLLKICLDTREPVLNLSLLKLRSLPPLPLHIRELNISNNELISLPENSPLLTELHVNGNNLNILPTLPSQLIKLNISFNRNLSCLPSLPPYLQSLSARFNSLETLPELPSTLTILRIEGNRLTVLPELPHRLQELFVSGNRLQELPEFPQSLKYLKVGENQLRRLSRLPQELLALDVSNNLLTSLPENIITLPICTNVNISGNPLSTHVLQSLQRLTSSPDYHGPQIYFSMSDGQQNTLHRPLADAVTAWFPENKQSDVSQIWHAFEHEEHANTFSAFLDRLSDTVSARNTSGFREQVAAWLEKLSASAELRQQSFAVAADATESCEDRVALTWNNLRKTLLVHQASEGLFDNDTGALLSLGREMFRLEILEDIARDKVRTLHFVDEIEVYLAFQTMLAEKLQLSTAVKEMRFYGVSGVTANDLRTAEAMVRSREENEFTDWFSLWGPWHAVLKRTEADRWAQAEEQKYEMLENEYSQRVADRLKASGLSGDADAEREAGAQVMRETEQQIYRQLTDEVLAHHHHHH | have the ability to remove ubiquitin from ubiquitinated UbcH5b in order to form poly-ubiquitin chains of the HA-tagged ubiquitin | – |
| recombinant IpaH7.8 from Shigella flexneri (protein) MFSVNNTHSSVSCSPSINSNSTSNEHYLRILTEWEKNSSPGEERGIAFNRLSQCFQNQEAVLNLSDLNLTSLPELPKHISALIVENNKLTSLPKLPAFLKELNADNNRLSVIPELPESLTTLSVRSNQLENLPVLPNHLTSLFVENNRLYNLPALPEKLKFLHVYYNRLTTLPDLPDKLEILCAQRNNLVTFPQFSDRNNIRQKEYYFHFNQITTLPESFSQLDSSYRINISGNPLSTRVLQSLQRLTSSPDYHGPQIYFSMSDGQQNTLHRPLADAVTAWFPENKQSDVSQIWHAFEHEEHANTFSAFLDRLSDTVSARNTSGFREQVAAWLEKLSASAELRQQSFAVAADATESCEDRVALTWNNLRKTLLVHQASEGLFDNDTGALLSLGREMFRLEILEDIARDKVRTLHFVDEIEVYLAFQTMLAEKLQLSTAVKEMRFYGVSGVTANDLRTAEAMVRSREENEFTDWFSLWGPWHAVLKRTEADRWAQAEEQKYEMLENEYSQRVADRLKASGLSGDADAEREAGAQVMRETEQQIYRQLTDEVLALRLSENGSRLHHSHHHHHH | have the ability to remove ubiquitin from ubiquitinated UbcH5b in order to form poly-ubiquitin chains of the HA-tagged ubiquitin | – |

From US20200038493
